Laboratory results: the supplement of paper PMC10724198
± gives the standard deviation of the averaged measurements.

Columns and labels:
[1] = tested on: Saccharomyces cerevisiae; test: protein stability index of tFT-peptide fusion (C-terminal peptide) (PSI (0-1 scale)); higher = more stable (slower turnover)
Experimental: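 MPS profiling in S. cerevisiae of the tFT-X12 degron library: putative degron peptides plus stable controls, 12 aa, fused to the C-terminus of a sfGFP-mCherry timer. Cells are FACS-sorted into 8 mCherry/sfGFP bins and deep-sequenced. PSI runs from 0 (unstable) to 1 (stable). Backgrounds are wild type, das1Δ and doa10Δ at 30 °C, and wild type, das1Δ, cdc34-1 and cdc53-1 at 37 °C; 2-3 technical replicates each.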

[2] = tested on: Saccharomyces cerevisiae; test: as above; details: genetic background: wild type; temperature: 30 C
[3] = genetic background: cdc34-1, temperature: 37 C
[4] = genetic background: cdc53-1, temperature: 37 C
[5] = genetic background: das1 deletion, temperature: 30 C
[6] = genetic background: das1 deletion, temperature: 37 C
[7] = genetic background: doa10 deletion, temperature: 30 C
[8] = genetic background: wild type, temperature: 30 C
[9] = genetic background: wild type, temperature: 37 C
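Note: PSI is a weighted mean of sequencing reads over stability bins, variants kept only with over 10 reads, mCherry proximal and sfGFP distal, peptide attached via GGGS linker.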

Sequence	protein stability index [1, 3]	protein stability index [1, 4]	protein stability index [1, 5]	protein stability index [1, 6]	protein stability index [1, 7]	protein stability index [1, 8]	protein stability index [1, 9]	protein stability index [2]
TTSHFCVVLVSV	0.283 ± 0.042	0.307 ± 0.016	0.232 ± 0.039	0.382 ± 0.009	0.182 ± 0.012	0.217 ± 0.032	0.356 ± 0.013	0.32 ± 0.016
YFCVELSVFGFF	0.416 ± 0.018	0.546 ± 0.077	0.37 ± 0.046	0.48 ± 0.018	0.324 ± 0.02	0.358 ± 0.023	0.476 ± 0.033	0.4 ± 0.036
SVVWIRFVGVRV	0.472 ± 0.026	0.507 ± 0.022	0.322 ± 0.024	0.5291 ± 0.0048	0.285 ± 0.0075	0.328 ± 0.016	0.499 ± 0.0089	0.418 ± 0.0043
HLYPFPSLHFAF	0.74 ± 0.043	0.791 ± 0.012	0.681 ± 0.013	0.778 ± 0.026	0.683 ± 0.025	0.688 ± 0.015	0.753 ± 0.019	0.799 ± 0.1
GRVAIFTLLWRI	0.199 ± 0.066	0.105 ± 0.041	0.256 ± 0.063	0.362 ± 0.01	0.469 ± 0.052	0.252 ± 0.032	0.29 ± 0.012	0.314 ± 0.12
GELDVRKLLKYF	0.688 ± 0.02	0.718 ± 0.043	0.669 ± 0.011	0.768 ± 0.019	0.154 ± 0.034	0.172 ± 0.036	0.383 ± 0.0041	0.342 ± 0.086
CLSGPFRSLAVF	0.545 ± 0.029	0.6286 ± 0.0025	0.485 ± 0.031	0.6326 ± 0.0051	0.341 ± 0.009	0.365 ± 0.023	0.5263 ± 0.0018	0.425 ± 0.038
VRFPVFFIILFL	0.0864 ± 0.024	0.0743 ± 0.0032	0.15 ± 0.029	0.235 ± 0.017	0.241 ± 0.014	0.142 ± 0.029	0.202 ± 0.0029	0.239 ± 0.018
VKGYISLLLVLI	0.269 ± 0.01	0.332 ± 0.012	0.264 ± 0.04	0.419 ± 0.0071	0.289 ± 0.0043	0.259 ± 0.014	0.365 ± 0.011	0.345 ± 0.013
PALPTPPVSPSP	0.613 ± 0.092	0.667 ± 0.11	0.256 ± 0.025	0.465 ± 0.0057	0.243 ± 0.014	0.265 ± 0.022	0.43648 ± 0.00011	0.333 ± 0.013
GFPFLFILYFLC	0.161 ± 0.03	0.257 ± 0.013	0.224 ± 0.02	0.385 ± 0.0061	0.111 ± 0.0087	0.0763 ± 0.036	0.105 ± 0.0019	0.158 ± 0.019
GALWPGALRFLN	0.587 ± 0.045	0.747 ± 0.05	0.671 ± 0.023	0.81 ± 0.022	0.101 ± 0.014	0.104 ± 0.015	0.195 ± 0.035	0.171 ± 0.026
HINRTIWARYQV	0.648 ± 0.069	0.742 ± 0.009	0.643 ± 0.033	0.75 ± 0.021	0.156 ± 0.019	0.174 ± 0.034	0.429 ± 0.032	0.362 ± 0.071
FSYLSFLPSLAA	0.545 ± 0.049	0.562 ± 0.034	0.466 ± 0.031	0.599 ± 0.017	0.442 ± 0.0053	0.468 ± 0.0066	0.5654 ± 0.0021	0.527 ± 0.048
PRLRPQTVAFLS	0.68 ± 0.038	0.732 ± 0.013	0.651 ± 0.011	0.721 ± 0.013	0.28 ± 0.02	0.313 ± 0.016	0.5179 ± 0.001	0.2648 ± 0.0012
IVFGWGVEWGRL	0.757 ± 0.038	0.803 ± 0.027	0.692 ± 0.014	0.7973 ± 0.0035	0.691 ± 0.038	0.701 ± 0.021	0.783 ± 0.017	0.69 ± 0.28
WDPEVVHRLWLN	0.587 ± 0.037	0.772 ± 0.029	0.662 ± 0.034	0.766 ± 0.013	0.125 ± 0.0063	0.14 ± 0.0092	0.155 ± 0.019	0.237 ± 0.019
ICTHPCLRLRLN	0.517 ± 0.039	0.662 ± 0.028	0.634 ± 0.012	0.732 ± 0.019	0.0875 ± 0.018	0.0887 ± 0.016	0.144 ± 0.055	0.165 ± 0.0032
CKGPPVKFIVLM	0.614 ± 0.018	0.7111 ± 0.0044	0.597 ± 0.03	0.7359 ± 0.0039	0.135 ± 0.0034	0.147 ± 0.028	0.243 ± 0.023	0.225 ± 0.057
LMVLISVMFSLG	0.112 ± 0.0088	0.254 ± 0.029	0.149 ± 0.022	0.292 ± 0.012	0.113 ± 0.013	0.182 ± 0.032	0.231 ± 0.012	0.323 ± 0.022
